From US20230227568A1 (Pieris, published 2023) come the findings set out here.

Assay [1] concerns the target T1, recombinant hu4-1BB-His (human 4-1BB with a C-terminal polyhistidine tag, R&D Systems) (human, UniProt Q07011 24-186).
T1 construct: Bought; not shown: C-terminal polyhistidine tag
As to the kind of experiment: ELISA, hu4-1BB-His coated on the plate, bound agent detected with anti-NGAL-HRP. Here is the method:
C-terminal His-tagged 4-1BB or GPC3 was coated on a microtiter plate, and the tested agents were titrated starting with the highest concentration of 100 nM. Bound agents under study were detected via anti-NGAL-HRP. The data was fit with a 1:1 binding model with the EC₅₀ value and the maximum signal as free parameters, and a slope that was fixed to one.
Recombinant hu4-1BB-His (human 4-1BB with a C-terminal polyhistidine tag, R&D Systems) at the concentration of 1 μg/mL in PBS was coated overnight on microtiter plates at 4° C. After washing with PBS-0.05% T (PBS supplemented with 0.05% (v/v) Tween 20), the plates were blocked with 2% BSA (w/v) in PBS-0.1% T (PBS supplemented with 0.1% (v/v) Tween 20) for 1 h at room temperature. After washing with 100 μL PBS-0.05% T five times, exemplary multimeric proteins (SEQ ID NOs: 38-44 and 46-53) or 4-1BB-specific lipocalin mutein as included in the multimeric protein (SEQ ID NO: 64) at different concentrations, ranging from 100 to 0.002 nM, were added to the wells and incubated for 1 h at room temperature, followed by another wash step. Bound molecules under study were detected by incubation with 1:1000 diluted anti-NGAL-HRP in PBS-0.1% T-2% BSA. After an additional wash step, fluorogenic HRP substrate (QuantaBlu, Thermo) was added to each well and the fluorescence intensity was detected using a fluorescence microplate reader.
In general terms: An ELISA detects its analyte on a solid surface through an enzyme-linked reagent.

Assay [2] deals with T2, cynomolgus 4-1BB on CHO cells (cynomolgus, UniProt A9YYE7 24-254).
T2 construct: also called Flp-In-CHO::cyno4-1BB; cynomolgus 4-1BB-expressing CHO cells
T2 sequence (A9YYE7 entry or part of it limits assumed): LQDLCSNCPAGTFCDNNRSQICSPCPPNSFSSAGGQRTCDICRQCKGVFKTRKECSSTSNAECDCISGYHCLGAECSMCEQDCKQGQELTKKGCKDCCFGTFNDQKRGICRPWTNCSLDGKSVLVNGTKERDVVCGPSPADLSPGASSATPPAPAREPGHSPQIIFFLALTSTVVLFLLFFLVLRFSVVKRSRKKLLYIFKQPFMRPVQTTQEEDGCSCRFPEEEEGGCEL
As to the kind of experiment: flow cytometry on Flp-In-CHO::cyCD137 (cynomolgus 4-1BB) cells, anti-NGAL detection, GeoMean BL1-H [Cont'd) B]. Here is the method: (§1) CHO cells were stably transfected with human 4-1BB, cynomolgus 4-1BB, or a mock control using the Flp-In system (Life Technologies) according to the manufacturer's instructions. Transfected CHO cells were maintained in Ham's F12 medium (Life Technologies) supplemented with 10% Fetal Calf Serum (Biochrom) and 500 μg/ml Hygromycin B (Roth). Cells were cultured in cell culture flasks according to manufacturer's instruction (37° C., 5% CO₂ atmosphere).
(§2) 5×10⁴ cells per well were incubated for 1 h in ice-cold PBS containing 5% fetal calf serum (PBS-FCS). A dilution series of the tested multimeric proteins (SEQ ID NOs: 38-44 and 46-55), the 4-1BB-targeting lipocalin mutein as included in the multimeric proteins (SEQ ID NO: 64) or the GPC3-targeting lipocalin SEQ ID NO: 90 were added to the cells and incubated for 1 h on ice. Cells were washed twice with PBS and then incubated with a rabbit anti-NGAL or a goat anti-human IgG labeled with fluorescent dye Alexa 488 for 30 min on ice. Human IgG4 isotype (SEQ ID NOs: 29 and 30) and lipocalin mutein SEQ ID NO: 8 were tested as a negative control. Cells were subsequently washed and analyzed using iQue Flow cytometer (Intellicyte Screener). Mean geometric fluorescent signals were plotted and fitted with Graphpad software using nonlinear regression (shared bottom, four parameters, variable slope).
(In general: In flow cytometry, cells or beads pass a laser one at a time.)

The target in assay [3] is T3, human PD-L1 on CHO cells (human, UniProt Q9NZQ7 19-290).
T3 construct: whole, on cells; Stably transfected CHO cells; also called Flp-In-CHO::huPD-L1; human PD-L1-expressing CHO cells
T3 sequence (Q9NZQ7 19-290): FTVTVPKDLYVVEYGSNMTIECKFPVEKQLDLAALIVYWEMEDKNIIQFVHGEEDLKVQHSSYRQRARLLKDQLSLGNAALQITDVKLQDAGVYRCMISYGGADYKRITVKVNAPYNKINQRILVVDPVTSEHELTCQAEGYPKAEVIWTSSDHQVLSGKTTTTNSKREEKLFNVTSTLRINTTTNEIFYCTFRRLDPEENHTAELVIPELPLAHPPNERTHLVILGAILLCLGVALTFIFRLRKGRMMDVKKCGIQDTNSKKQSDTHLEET
The experiment in a line: flow cytometry on CHO cells stably transfected with human PD-L1, anti-NGAL detection, GeoMean BL1-H. Here is the method: as §2
(§3) Target-specific binding of hexavalent trimeric proteins to human 4-1BB-, OX40- or PD-L1-expressing cells was assessed by flow cytometry as described in Example 5, using CHO cells stably transfected with human 4-1BB, human OX40 or human PD-L1 (Flp-In system; Life Technologies).

The target of assay [4] is T4, human GPC3 on HepG2 cells (human, UniProt P51654 25-554).
T4 construct: whole, on cells; Endogenous GPC3 of the tumor cell line; also called GPC3-positive tumor cell line HepG2; human GPC3-expressing HepG2 cells
T4 sequence (P51654 25-554 limits assumed): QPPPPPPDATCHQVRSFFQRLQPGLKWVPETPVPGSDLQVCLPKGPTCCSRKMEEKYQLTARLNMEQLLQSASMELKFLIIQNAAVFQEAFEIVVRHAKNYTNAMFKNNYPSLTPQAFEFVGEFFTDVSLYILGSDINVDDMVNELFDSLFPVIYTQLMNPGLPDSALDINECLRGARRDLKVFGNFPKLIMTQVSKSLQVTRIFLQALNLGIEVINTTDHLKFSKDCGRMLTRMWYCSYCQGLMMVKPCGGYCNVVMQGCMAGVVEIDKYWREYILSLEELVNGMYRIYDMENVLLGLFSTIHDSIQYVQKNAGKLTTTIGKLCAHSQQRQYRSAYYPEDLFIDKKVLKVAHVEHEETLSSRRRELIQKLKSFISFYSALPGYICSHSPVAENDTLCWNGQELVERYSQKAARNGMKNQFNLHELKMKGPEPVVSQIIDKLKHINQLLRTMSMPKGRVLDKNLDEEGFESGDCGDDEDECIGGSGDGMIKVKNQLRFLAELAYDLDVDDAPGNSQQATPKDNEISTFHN
The experiment in a line: flow cytometry on HepG2 cells (human GPC3), anti-NGAL detection, GeoMean BL1-H [Cont'd) C]. Here is the method:
GPC3-positive tumor cell line HepG2 was cultured in Dulbecco's Modified Eagle's Medium ([…], Pan Biotech) supplemented with 10% Fetal Calf Serum (Sigma-Aldrich) and in cell culture flasks according to manufacturer's instruction (37° C., 5% CO₂ atmosphere).
as §2

Assay [5] deals with T5, human 4-1BB on cells (human, UniProt Q07011 24-255).
T5 construct: whole, on cells; Stably transfected CHO cells (flow cytometry) and bought Jurkat reporter cells (bioassay); also called Flp-In-CHO::hu4-1BB; human 4-1BB-expressing CHO cells
T5 sequence (Q07011 24-255): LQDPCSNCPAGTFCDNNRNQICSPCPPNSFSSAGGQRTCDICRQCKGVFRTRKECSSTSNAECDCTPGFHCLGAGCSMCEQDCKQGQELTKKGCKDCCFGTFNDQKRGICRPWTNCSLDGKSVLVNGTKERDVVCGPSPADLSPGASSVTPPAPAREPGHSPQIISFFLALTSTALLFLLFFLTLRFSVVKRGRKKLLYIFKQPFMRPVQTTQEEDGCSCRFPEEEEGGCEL
The experiment in a line: flow cytometry on Flp-In-CHO::huCD137 (human 4-1BB) cells, anti-NGAL detection, GeoMean BL1-H. Here is the method: as §1, §2

Assay [6] has as its target T3, human PD-L1 on CHO cells. The experiment in a line: flow cytometry, Flp-In-CHO::huPD-L1 cells.
Assay [7] addresses T5, human 4-1BB on cells. The experiment in a line: flow cytometry, Flp-In-CHO::hu4-1BB cells. Here is the method:
as §2, §3

A further assay deals with T6, hu4-1BB-Fc (R&D Systems) (human, UniProt Q07011 24-186).
T6 construct: Bought; also called human 4-1BB; not shown: human IgG Fc of the bought fusion
The experiment in a line: SPR, hu4-1BB-Fc captured. For orientation: Surface plasmon resonance follows binding to a sensor surface in real time, without labels.

In general, EC50 refers to the concentration at which the effect is half-maximal.

B1: SEQ ID NO: 8 (designed binder)
lipocalin mutein: QDSTSDLIPAPPLSKVPLQQNFQDNQFHGKWYVVGLAGNAILREDKDPQKMYATIYELKEDKSYNVTSVLFRKKKCDYWIRTFVPGSQPGEFTLGNIKSYPGLTSYLVRVVSTNYNQHAMVFFKKVSQNREYFKITLYGRTKELTSELKENFIRFSKSLGLPENHIVFPVPIDQCIDG
B1: the binding result in assay [1] is recorded as “no binding (tested: 100 nM)”; in assay [2], “no binding (tested: about 200 nM)”; with human PD-L1 on CHO cells [3], “no binding (tested: about 7 nM)”; in assay [4], “no binding (tested: about 200 nM)”; with human 4-1BB on cells [5] it was “no binding (tested: about 200 nM)”.

B2: bispecific hexavalent trimeric protein SEQ ID NO: 167 (designed binder)
chain: QVQLQESGPGLVKPSETLSITCTVSGFSLSNYDISWIRQPPGKGLEWLGVIWTGGATNYNPALKSRLTISRDNSKNQVSLKMSSVTAADTAVYYCVRDSNYRYDEPFTYWGQGTLVTVSSGGGGSGGGGSGGGGSGGGGSEIVLTQSPDTLSVTPKEKVTLTCRASQSIGTNIHWFQQKPGQSPKLLIKYASESISGVPSRFSGSGSGTDFTLTINSVEAEDAATYYCQQSNSWPYTFGQGTKLEIKGGGGSGGGGSGGGGSGVRLWATRQAMLGQVHEVPEGWLIFVAEQEELYVRVQNGFRKVQLEARTPLGGGGSGGGGSGGGGSQDSTSDLIPAPPLSKVPLQQNFQDNQFHGKWYVVGQAGNIRLREDKDPIKMMATIYELKEDKSYDVTMVKFDDKKCMYDIWTFVPGSQPGEFTLGKIKSFPGHTSSLVRVVSTNYNQHAMVFFKFVFQNREEFYITLYGRTKELTSELKENFIRFSKSLGLPENHIVFPVPIDQCIDGGGSGGAPEQKLISEEDLGSHHHHHHHHHH
As for B2, the EC50 turned out to be 1.23 nM with human PD-L1 on CHO cells [6] and 4.71 nM in the assay with human 4-1BB on cells [7].

B3: multimeric protein SEQ ID NO: 45 (designed binder)
chain: GVRLWATRQAMLGQVHEVPEGWLIFVAEQEELYVRVQNGFRKVQLEARTPLGGGGSGGGGSGGGGSGGGGSGGGGSQDSTSDLIPAPPLSKVPLQQNFQDNQFHGKWYVVGQAGNIRLREDKDPIKMMATIYELKEDKSYDVTMVKFDDKKCMYDIWTFVPGSQPGEFTLGKIKSFPGHTSSLVRVVSTNYNQHAMVFFKFVFQNREEFYITLYGRTKELTSELKENFIRFSKSLGLPENHIVFPVPIDQCIDGGGSGGAPEQKLISEEDLGSHHHHHHHHHH
For the molecule B3, in the assay with hu4-1BB-Fc (R&D Systems), the binding result is listed as “binds”.
